Target: Hsp104ΔM (yeast) (UniProt P31539)
Assay: SEC

stoichiometry N: 6
Substance: Hsp104ΔM (from UniProt P31539 1-908) (natural protein)

Reference: paper PMC2938849
